Experimental data taken from patent publication US20240317834A1, “COMPOSITIONS AND METHODS FOR NEUROLOGICAL DISEASES” (CODA BIOTHERAPEUTICS, INC., priority 2020, published 2024).

System: Lenti-X 293T cells
Experiment: YFP fluorescence quenching anion reporter plate reader assay of engineered receptors stimulated with acetylcholine or a non-native ligand
Assay type: cell-based
Conditions: for percent quench of YFP fluorescence, 30 nM TC-6683: TC-6683 30 nM; for percent quench of YFP fluorescence, 300 nM TC-6683: TC-6683 300 nM; for percent quench of YFP fluorescence, 3 uM TC-6683: TC-6683 3 uM; for percent quench of YFP fluorescence, 30 uM TC-6683: TC-6683 30 uM; for percent quench of YFP fluorescence, 100 uM TC-6683: TC-6683 100 uM; for percent quench of YFP fluorescence, 10 uM ach: acetylcholine 10 uM; for percent quench of YFP fluorescence, 100 uM ach: acetylcholine 100 uM; for percent quench of YFP fluorescence, 1 mM ach: acetylcholine 1 mM; for percent quench of YFP fluorescence, 3 mM ach: acetylcholine 3 mM
From the text: To screen these mutant LGICs for those having novel response profiles to ligands, an anion reporter assay was developed to assess the function of the LGICs in a high throughput format. In this assay, cells expressing a YFP reporter whose fluorescence is quenched in the presence of anion are transfected with DNA encoding the channel of interest. Upon exposure to ligand, channels that are activated will flux anion, resulting in a dose-dependent quench of the YFP that can be detected on a plate reader. The greater the quench signal (i.e., the more positive the value), the higher the ligand activity on the receptor is.
Lenti-X 293T cells (LX293T, Clontech) were maintained in DMEM containing 10% FBS and 1% penicillin/streptomycin (Invitrogen). […] Two days before assay, cells were split at a density of 20,000 cells/well in a 96-well tissue culture plate coated with poly-d lysine (Thermo Scientific). The next day, the cells were transiently transfected with 0.1 μg of DNA per well using standard Fugene protocol (Promega). On the day of assay, cells were washed 2 times in 1× extracellular solution (1×ECS: 140 mM NaCl, 5 mM KCl, 1 mM MgCl2, 2 mM CaCl2), 10 mM HEPES, 10 mM glucose, pH 7.2, mOsms 300). After the last wash, 100 μL of 1×ECS was added to the wells and the plate was incubated at 37° C. for 30 min. While incubating the plate, the drugs were diluted to a 2× concentration in 1×ECS-NaI (same components as 1×ECS except the 140 mM NaCl was replaced by 140 mM NaI). The plates were then read on a Flexstation3 (Molecular Devices). Each well, 8 wells at a time, of the plate is read for 2 min using a Flexstation3 (Molecular Devices) as follows: 1) a baseline YFP fluorescence is read for 17 sec, 2) 100 μL of ligand is added, and 3) the changes in YFP fluorescence are then measured every 1.3 sec for 1 minute and 43 seconds. The percent quench is calculated from the average fluorescence of the last 10 seconds of the read divided by the baseline average of the first 15 seconds prior to the ligand addition.
FIGS. 1A-1J provide heat maps of the percent quench of YFP fluorescence following stimulation by various doses of either acetylcholine or the non-native ligand as indicated in the Figures. CODA71 (SEQ ID NO: 33) was used as a control, and CODA75 (SEQ ID NO: 29, a non-responding chimeric engineered receptor) was used as the negative control. Quenching of the fluorescence signal, as indicated by blue shaded cells, indicate the level of engineered receptor activation by the non-native ligand at that concentration.

B1: CODA330: engineered chimeric LGIC receptor, L131F in SEQ ID NO: 33 (protein)
chain: MRCSPGGVWLALAASLLHVSLQGEFQRKLYKELVKNYNPLERPVANDSQPLTVYFSLSLLQIMDVDEKNQVLTTNIWLQMSWTDHYLQWNVSEYPGVKTVRFPDGQIWKPDILLYNSADERFDATFHTNVFVNSSGHCQYLPPGIFKSSCPMDLKNFPMDVQTCKLKFGSWSYGGWSLDLQMQEADISGYIPNGEWDLVGIPGKRSERFYECCKEPYPDVTFTVTMRRRMGYYLIQMYIPSLLIVILSWISFWINMDAAPARVGLGITTVLTMTTQSSGSRASLPKVSYVKAIDIWMAVCLLFVFSALLEYAAVNFVSRQHKELLRFRRKRRHHKSPMLNLFQEDEAGEGRFNFSAYGMGPACLQAKDGISVKGANNSNTTNPPPAPSKSPEEMRKLFIQRAKKIDKISRIGFPMAFLIFNMFYWIIYKIVRREDVHNQ
modifications: synthetic sequence of chimeric LGIC
YFP fluorescence quenching using CNL001 (1 nM CNL001, first column): 76.289% | YFP fluorescence quenching using CNL001 (1 nM CNL001, second column): 78.896% | YFP fluorescence quenching using TC-5619/Bradanicline (1 nM brd): −12.4% | YFP fluorescence quenching using TC-5619/Bradanicline (3 nM brd): 25.12% | YFP fluorescence quenching using Varenicline (3 nM var, first column): −3.016 | YFP fluorescence quenching using Varenicline (3 nM var, second column): −1.452 | YFP fluorescence quenching using CNL001 (10 nM CNL001, first column): 79.339% | YFP fluorescence quenching using CNL001 (10 nM CNL001, second column): 80.245% | YFP fluorescence quenching using TC-5619/Bradanicline (10 nM brd): 72.19% | YFP fluorescence quenching using TC-5619/Bradanicline (30 nM brd): 76.35% | YFP fluorescence quenching using Facinicline (30 nM fac): 2.9 | YFP fluorescence quenching using Varenicline (30 nM var, first column): −0.193 | YFP fluorescence quenching using Varenicline (30 nM var, second column): −1.853 | YFP fluorescence quenching using CNL001 (50 nM CNL001, first column): 80.831% | YFP fluorescence quenching using CNL001 (50 nM CNL001, second column): 80.605% | YFP fluorescence quenching using ABT-126 (50 nM abt): −16.22% | YFP fluorescence quenching using CNL001 (100 nM CNL001, first column): 81% | YFP fluorescence quenching using CNL001 (100 nM CNL001, second column): 80.663% | YFP fluorescence quenching using CNL002 (100 nM CNL002): −3.76% | YFP fluorescence quenching using ABT-126 (100 nM abt): −11.89% | YFP fluorescence quenching using AZD-0328 (100 nM azd0328): 27.56% | YFP fluorescence quenching using TC-5619/Bradanicline (100 nM brd): 78.94% | YFP fluorescence quenching using ABT-126 (300 nM abt): 39.23% | YFP fluorescence quenching using AZD-0328 (300 nM azd0328): 73.35% | YFP fluorescence quenching using TC-5619/Bradanicline (300 nM brd): 77.06% | YFP fluorescence quenching using Facinicline (300 nM fac): 74.96 | YFP fluorescence quenching using Varenicline (300 nM var, first column): 6.915 | YFP fluorescence quenching using Varenicline (300 nM var, second column): 6.513 | YFP fluorescence quenching using Varenicline (500 nM var, first column): 27.593 | YFP fluorescence quenching using Varenicline (500 nM var, second column): 29.863 | YFP fluorescence quenching using CNL001 (1 uM CNL001, first column): 81.293% | YFP fluorescence quenching using CNL001 (1 uM CNL001, second column): 81.428% | YFP fluorescence quenching using CNL002 (1 uM CNL002): 68.51% | YFP fluorescence quenching using ABT-126 (1 uM abt): 66.5% | YFP fluorescence quenching using TC-5619/Bradanicline (1 uM brd): 78.61% | YFP fluorescence quenching using TC-6987 (1 uM tc6987): 53.37 | YFP fluorescence quenching using Varenicline (1 uM var, first column): 67.499 | YFP fluorescence quenching using Varenicline (1 uM var, second column): 65.57 | YFP fluorescence quenching using Facinicline (10 uM fac): 81.97 | YFP fluorescence quenching using TC-6987 (10 uM tc6987): 74.23 | YFP fluorescence quenching using CNL002 (30 uM CNL002): 77.77% | YFP fluorescence quenching using AZD-0328 (30 uM azd0328): 77.14% | YFP fluorescence quenching using Facinicline (30 uM fac): 78.31 | YFP fluorescence quenching using TC-6987 (500 uM tc6987): 72.25 | percent quench of YFP fluorescence, 30 nM TC-6683: −22.26% | percent quench of YFP fluorescence, 300 nM TC-6683: −18.89% | percent quench of YFP fluorescence, 3 uM TC-6683: −9.45% | percent quench of YFP fluorescence, 30 uM TC-6683: −9.23% | percent quench of YFP fluorescence, 100 uM TC-6683: −10.75% | percent quench of YFP fluorescence, 10 uM ach: 11.07% | percent quench of YFP fluorescence, 100 uM ach: 43.34% | percent quench of YFP fluorescence, 1 mM ach: 77.52% | percent quench of YFP fluorescence, 3 mM ach: 74.89%

B2: CODA333: engineered chimeric LGIC receptor, L131S in SEQ ID NO: 33 (protein)
chain: MRCSPGGVWLALAASLLHVSLQGEFQRKLYKELVKNYNPLERPVANDSQPLTVYFSLSLLQIMDVDEKNQVLTTNIWLQMSWTDHYLQWNVSEYPGVKTVRFPDGQIWKPDILLYNSADERFDATFHTNVSVNSSGHCQYLPPGIFKSSCPMDLKNFPMDVQTCKLKFGSWSYGGWSLDLQMQEADISGYIPNGEWDLVGIPGKRSERFYECCKEPYPDVTFTVTMRRRMGYYLIQMYIPSLLIVILSWISFWINMDAAPARVGLGITTVLTMTTQSSGSRASLPKVSYVKAIDIWMAVCLLFVFSALLEYAAVNFVSRQHKELLRFRRKRRHHKSPMLNLFQEDEAGEGRFNFSAYGMGPACLQAKDGISVKGANNSNTTNPPPAPSKSPEEMRKLFIQRAKKIDKISRIGFPMAFLIFNMFYWIIYKIVRREDVHNQ
modifications: synthetic sequence of chimeric LGIC
YFP fluorescence quenching using CNL001 (1 nM CNL001, first column): 76.165% | YFP fluorescence quenching using CNL001 (1 nM CNL001, second column): 78.463% | YFP fluorescence quenching using TC-5619/Bradanicline (1 nM brd): −0.85% | YFP fluorescence quenching using TC-5619/Bradanicline (3 nM brd): −2.05% | YFP fluorescence quenching using Varenicline (3 nM var, first column): −4.782 | YFP fluorescence quenching using Varenicline (3 nM var, second column): 1.048 | YFP fluorescence quenching using CNL001 (10 nM CNL001, first column): 79.349% | YFP fluorescence quenching using CNL001 (10 nM CNL001, second column): 78.238% | YFP fluorescence quenching using TC-5619/Bradanicline (10 nM brd): −2.8% | YFP fluorescence quenching using TC-5619/Bradanicline (30 nM brd): −2.07% | YFP fluorescence quenching using Facinicline (30 nM fac): 6.27 | YFP fluorescence quenching using Varenicline (30 nM var, first column): 2.084 | YFP fluorescence quenching using Varenicline (30 nM var, second column): 5.022 | YFP fluorescence quenching using CNL001 (50 nM CNL001, first column): 80.221% | YFP fluorescence quenching using CNL001 (50 nM CNL001, second column): 81.789% | YFP fluorescence quenching using ABT-126 (50 nM abt): −20.99% | YFP fluorescence quenching using CNL001 (100 nM CNL001, first column): 81.855% | YFP fluorescence quenching using CNL001 (100 nM CNL001, second column): 80.766% | YFP fluorescence quenching using CNL002 (100 nM CNL002): −15.44% | YFP fluorescence quenching using ABT-126 (100 nM abt): −16.21% | YFP fluorescence quenching using AZD-0328 (100 nM azd0328): 38.49% | YFP fluorescence quenching using TC-5619/Bradanicline (100 nM brd): 30.34% | YFP fluorescence quenching using ABT-126 (300 nM abt): −13.34% | YFP fluorescence quenching using AZD-0328 (300 nM azd0328): 67.13% | YFP fluorescence quenching using TC-5619/Bradanicline (300 nM brd): 50.56% | YFP fluorescence quenching using Facinicline (300 nM fac): 69.8 | YFP fluorescence quenching using Varenicline (300 nM var, first column): 12.162 | YFP fluorescence quenching using Varenicline (300 nM var, second column): 12.979 | YFP fluorescence quenching using Varenicline (500 nM var, first column): 29.238 | YFP fluorescence quenching using Varenicline (500 nM var, second column): 25.614 | YFP fluorescence quenching using CNL001 (1 uM CNL001, first column): 81.707% | YFP fluorescence quenching using CNL001 (1 uM CNL001, second column): 82.665% | YFP fluorescence quenching using CNL002 (1 uM CNL002): 15.21% | YFP fluorescence quenching using ABT-126 (1 uM abt): 4.96% | YFP fluorescence quenching using TC-5619/Bradanicline (1 uM brd): 72.42% | YFP fluorescence quenching using TC-6987 (1 uM tc6987): −3.87 | YFP fluorescence quenching using Varenicline (1 uM var, first column): 43.863 | YFP fluorescence quenching using Varenicline (1 uM var, second column): 39.346 | YFP fluorescence quenching using TC-6987 (3 uM tc6987): −20.2 | YFP fluorescence quenching using TC-6987 (5 uM tc6987): −15.25 | YFP fluorescence quenching using Facinicline (10 uM fac): 80.07 | YFP fluorescence quenching using TC-6987 (10 uM tc6987): 4.92 | YFP fluorescence quenching using AZD-0328 (30 uM azd0328): 80.61% | YFP fluorescence quenching using Facinicline (30 uM fac): 81.35 | YFP fluorescence quenching using TC-6987 (30 uM tc6987): 14.75 | YFP fluorescence quenching using TC-6987 (50 uM tc6987): 21.33 | YFP fluorescence quenching using TC-6987 (100 uM tc6987): 29.7 | YFP fluorescence quenching using TC-6987 (300 uM tc6987): 20.79 | YFP fluorescence quenching using TC-6987 (500 uM tc6987): 44.37 | percent quench of YFP fluorescence, 30 nM TC-6683: −23.88% | percent quench of YFP fluorescence, 300 nM TC-6683: −21.46% | percent quench of YFP fluorescence, 3 uM TC-6683: −21.07% | percent quench of YFP fluorescence, 30 uM TC-6683: −16.15% | percent quench of YFP fluorescence, 100 uM TC-6683: −18.96% | percent quench of YFP fluorescence, 10 uM ach: −10.11% | percent quench of YFP fluorescence, 100 uM ach: −10.05% | percent quench of YFP fluorescence, 1 mM ach: 32.11% | percent quench of YFP fluorescence, 3 mM ach: 57.37%
